Patent US20180155451A1 (published 2018)

T1: FcγRIIb extracellular domain with C-terminal His tag (human, UniProt P31994 43-217)
T1 construct: extracellular domain; also called 2b; FcgRIIb
T1 sequence (looked up): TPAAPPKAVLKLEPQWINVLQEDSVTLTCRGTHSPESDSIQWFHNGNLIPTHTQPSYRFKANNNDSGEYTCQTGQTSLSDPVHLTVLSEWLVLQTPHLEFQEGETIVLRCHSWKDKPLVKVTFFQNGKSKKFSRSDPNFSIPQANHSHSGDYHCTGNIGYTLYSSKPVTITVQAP

T2: FcγRIIb (human, UniProt P31994 43-217)
T2 construct: extracellular domain; also called FcgRIIb; 2b
T2 sequence (looked up): T1 sequence (looked up)

T3: FcγRIIa R (FcγRIIa, allotype R: Arg at position 131) extracellular domain with C-terminal His tag (human, UniProt P12318 34-217)
T3 construct: extracellular domain; also called FcgRIIa R; 2aR; not shown: His tag at the C terminus
T3 sequence (looked up): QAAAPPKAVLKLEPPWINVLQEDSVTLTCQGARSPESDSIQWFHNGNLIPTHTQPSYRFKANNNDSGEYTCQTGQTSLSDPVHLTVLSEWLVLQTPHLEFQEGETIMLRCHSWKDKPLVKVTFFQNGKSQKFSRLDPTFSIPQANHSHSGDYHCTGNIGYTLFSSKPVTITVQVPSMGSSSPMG

T4: FcγRIIb extracellular domain with C-terminal His tag (human, UniProt P31994 43-217)
T4 construct: extracellular domain; also called FcgRIIb; 2b; not shown: His tag at the C terminus
T4 sequence (looked up): T1 sequence (looked up)

B1: GpH7-A5/GpH7-B3 variant S324_09D/GpL16-k0 (antibody, human IgG1, kappa)
heavy 1: not shown
heavy 2: not shown
light: DIVMTQSPLSLPVTPGEPASISCQASESLVHSNRNTYLHWYLQKPGQSPQLLIYKVSNRFSGVPDRFSGSGSGTDFTLKISRVEAEDVGVYYCSQNTHVPPTFGQGTKVEIERTVAAPSVFIFPPSDEQLKSGTASVVCLLNNFYPREAKVQWKVDNALQSGNSQESVTEQDSKDSTYSLSSTLTLSKADYEKHKVYACEVTHQGLSSPVTKSFNRGEC
notes: He Ab: alteration in one H chain only; also called He Ab
B2: GpH7-A5/GpH7-B3 variant S298_14T/GpL16-k0 (antibody, human IgG1, kappa)
heavy 1: not shown
heavy 2: not shown
light: B1 light
notes: as for B1
B3: GpH7-A5/GpH7-B3 variant S324_02A/GpL16-k0 (antibody, human IgG1, kappa)
heavy 1: not shown
heavy 2: not shown
light: B1 light
notes: as for B1
B4: GpH7-A5/GpH7-B3 variant S324_20W/GpL16-k0 (antibody, human IgG1, kappa)
heavy 1: not shown
heavy 2: not shown
light: B1 light
notes: as for B1
B5: GpH7-A5/GpH7-B3 variant Y300_08L/GpL16-k0 (antibody, human IgG1, kappa)
heavy 1: not shown
heavy 2: not shown
light: B1 light
notes: as for B1
B6: GpH7-A5/GpH7-B3 variant S324_15Y/GpL16-k0 (antibody, human IgG1, kappa)
heavy 1: not shown
heavy 2: not shown
light: B1 light
notes: as for B1
B7: GpH7-A5/GpH7-B3 variant S324_01G/GpL16-k0 (antibody, human IgG1, kappa)
heavy 1: not shown
heavy 2: not shown
light: B1 light
notes: as for B1
B8: GpH7-A5/GpH7-B3 variant S298_02A/GpL16-k0 (antibody, human IgG1, kappa)
heavy 1: not shown
heavy 2: not shown
light: B1 light
notes: as for B1
B9: GpH7-A5/GpH7-B3 variant S298_03V/GpL16-k0 (antibody, human IgG1, kappa)
heavy 1: not shown
heavy 2: not shown
light: B1 light
notes: as for B1
B10: GpH7-A5/GpH7-B3 variant S324_14T/GpL16-k0 (antibody, human IgG1, kappa)
heavy 1: not shown
heavy 2: not shown
light: B1 light
notes: as for B1
B11: GpH7-A5/GpH7-B3 variant S324_16H/GpL16-k0 (antibody, human IgG1, kappa)
heavy 1: not shown
heavy 2: not shown
light: B1 light
notes: as for B1
B12: GpH7-A5/GpH7-B3 variant I336_04F/GpL16-k0 (antibody, human IgG1, kappa)
heavy 1: not shown
heavy 2: not shown
light: B1 light
notes: heterodimerized IgG1, one H chain mutated; also called He Ab
B13: GpH7-A5/GpH7-B3 variant I336_14T/GpL16-k0 (antibody, human IgG1, kappa)
heavy 1: not shown
heavy 2: not shown
light: B1 light
notes: as for B12
B14: GpH7-A5/GpH7-B3 variant I336_11K/GpL16-k0 (antibody, human IgG1, kappa)
heavy 1: not shown
heavy 2: not shown
light: B1 light
notes: as for B12
B15: GpH7-A5/GpH7-B3 variant S337_12R/GpL16-k0 (antibody, human IgG1, kappa)
heavy 1: not shown
heavy 2: not shown
light: B1 light
notes: as for B12
B16: GpH7-A5/GpH7-B3 variant I336_09D/GpL16-k0 (antibody, human IgG1, kappa)
heavy 1: not shown
heavy 2: not shown
light: B1 light
notes: as for B12
B17: GpH7-A5/GpH7-B3 variant I336_19Q/GpL16-k0 (antibody, human IgG1, kappa)
heavy 1: not shown
heavy 2: not shown
light: B1 light
notes: as for B12
B18: GpH7-A5/GpH7-B3 variant S337_06M/GpL16-k0 (antibody, human IgG1, kappa)
heavy 1: not shown
heavy 2: not shown
light: B1 light
notes: as for B12
B19: GpH7-A5/GpH7-B3 variant I336_12R/GpL16-k0 (antibody, human IgG1, kappa)
heavy 1: not shown
heavy 2: not shown
light: B1 light
notes: as for B12
B20: GpH7-A5/GpH7-B3 variant S337_01G/GpL16-k0 (antibody, human IgG1, kappa)
heavy 1: not shown
heavy 2: not shown
light: B1 light
notes: as for B12
B21: GpH7-A5/GpH7-B3 variant I336_16H/GpL16-k0 (antibody, human IgG1, kappa)
heavy 1: not shown
heavy 2: not shown
light: B1 light
notes: as for B12
B22: GpH7-A5/GpH7-B3 variant S337_19Q/GpL16-k0 (antibody, human IgG1, kappa)
heavy 1: not shown
heavy 2: not shown
light: B1 light
notes: as for B12
B23: GpH7-A5/GpH7-B3 variant S337_04F/GpL16-k0 (antibody, human IgG1, kappa)
heavy 1: not shown
heavy 2: not shown
light: B1 light
notes: as for B12
B24: GpH7-A5/GpH7-B3 variant I336_18N/GpL16-k0 (antibody, human IgG1, kappa)
heavy 1: not shown
heavy 2: not shown
light: B1 light
notes: as for B12
B25: GpH7-A5/GpH7-B3 variant S337_03V/GpL16-k0 (antibody, human IgG1, kappa)
heavy 1: not shown
heavy 2: not shown
light: B1 light
notes: as for B12
B26: GpH7-A5/GpH7-B3 variant I336_15Y/GpL16-k0 (antibody, human IgG1, kappa)
heavy 1: not shown
heavy 2: not shown
light: B1 light
notes: as for B12
B27: GpH7-A5/GpH7-B3 variant I336_10E/GpL16-k0 (antibody, human IgG1, kappa)
heavy 1: not shown
heavy 2: not shown
light: B1 light
notes: as for B12
B28: GpH7-A5/GpH7-B3 variant I336_13S/GpL16-k0 (antibody, human IgG1, kappa)
heavy 1: not shown
heavy 2: not shown
light: B1 light
notes: as for B12
B29: GpH7-A5/GpH7-B3 variant S337_02A/GpL16-k0 (antibody, human IgG1, kappa)
heavy 1: not shown
heavy 2: not shown
light: B1 light
notes: as for B12
B30: GpH7-A5/GpH7-B3 variant S337_11K/GpL16-k0 (antibody, human IgG1, kappa)
heavy 1: not shown
heavy 2: not shown
light: B1 light
notes: as for B12
B31: GpH7-A5/GpH7-B3 variant H268_12R/GpL16-k0 (antibody, human IgG1, kappa)
heavy 1: not shown
heavy 2: not shown
light: B1 light
notes: He Ab: alteration in the GpH7-B3 H chain only; also called He Ab
B32: GpH7-A5/GpH7-B3 variant E333_04F/GpL16-k0 (antibody, human IgG1, kappa)
heavy 1: not shown
heavy 2: not shown
light: B1 light
notes: as for B31
B33: GpH7-A5/GpH7-B3 variant A330_15Y/GpL16-k0 (antibody, human IgG1, kappa)
heavy 1: not shown
heavy 2: not shown
light: B1 light
notes: as for B31
B34: GpH7-A5/GpH7-B3 variant A330_11K/GpL16-k0 (antibody, human IgG1, kappa)
heavy 1: not shown
heavy 2: not shown
light: B1 light
notes: as for B31
B35: GpH7-A5/GpH7-B3 variant H268_11K/GpL16-k0 (antibody, human IgG1, kappa)
heavy 1: not shown
heavy 2: not shown
light: B1 light
notes: as for B31
B36: GpH7-A5/GpH7-B3 variant A330_19Q/GpL16-k0 (antibody, human IgG1, kappa)
heavy 1: not shown
heavy 2: not shown
light: B1 light
notes: as for B31
B37: GpH7-A5/GpH7-B3 variant A330_12R/GpL16-k0 (antibody, human IgG1, kappa)
heavy 1: not shown
heavy 2: not shown
light: B1 light
notes: as for B31
B38: GpH7-A5/GpH7-B3 variant E333_05P/GpL16-k0 (antibody, human IgG1, kappa)
heavy 1: not shown
heavy 2: not shown
light: B1 light
notes: as for B31

biological target: T5, FcγRIIIa extracellular domain with C-terminal His tag (human, UniProt P08637 17-208); test: SPR, relative to GpH7-A5/GpH7-B3/GpL16-k0
T5 construct: extracellular domain; also called 3a; FcgRIIIa
T5 sequence (P08637 17-208): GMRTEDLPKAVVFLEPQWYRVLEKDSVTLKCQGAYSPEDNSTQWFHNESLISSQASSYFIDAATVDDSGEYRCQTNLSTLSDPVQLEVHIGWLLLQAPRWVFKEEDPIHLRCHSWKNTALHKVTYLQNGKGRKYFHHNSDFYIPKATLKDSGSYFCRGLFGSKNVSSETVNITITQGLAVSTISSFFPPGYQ
Experimental: (§1) The heterodimerized antibodies He Abs in which one of the H chains was introduced with an alteration were assayed for their binding activities to each activating FcγR and inhibitory FcγR according to the method described in Example 4. […] The activating FcγRs in FIGS. 26, 27, 28, and 29 are FcγRIa, FcγRIIa (R), FcγRIIa (H), and FcγRIIIa, respectively.
(§2) Analysis of interaction between objective antibody and the FcγR was carried out using Biacore T100 (GE Healthcare). HBS-EP+ (GE Healthcare) was used as the running buffer, and the measurement temperature was set to 25° C. Chips produced by immobilizing the antigen peptide by the amine coupling method to a Series S Sencor Chip CM5 (GE Healthcare), or alternatively, chips produced by allowing preliminarily biotinylated antigen peptides to interact with and immobilize onto a Series S Sensor Chip SA (certified) (GE Healthcare) were used. Antibodies of interest were captured onto an antigen peptide-immobilized chip, and allowed to interact to each FcγR diluted with running buffer. To regenerate and repeatedly use the chip, the antibodies captured on the chip were washed off by reacting 10 mM glycine-HCl, pH 1.5.

He/Con_3a	Binder
101 control=100	B1
113 control=100	B2
104 control=100	B3
102 control=100	B4
105 control=100	B5
101 control=100	B6
105 control=100	B7
160 control=100	B8
109 control=100	B9
103 control=100	B10
104 control=100	B11

biological target: T1, FcγRIIb extracellular domain with …; test: SPR, relative to GpH7-A5/GpH7-B3/GpL16-k0
Experimental: as §1, §2

He/Con_2b	Binder
85.8 control=100	B1
77.9 control=100	B2
78.3 control=100	B3
87.5 control=100	B4
73.6 control=100	B5
88.2 control=100	B6
81.1 control=100	B7
73.4 control=100	B8
64.5 control=100	B9
88.4 control=100	B10
83.5 control=100	B11

biological target: T6, FcγRIa (human, UniProt P12314 16-292); test: SPR (Biacore), relative to GpH7-A5/GpH7-B3/GpL16-k0 = 100
T6 construct: extracellular domain; also called FcgRI; FcgRIa
T6 sequence (P12314 16-292): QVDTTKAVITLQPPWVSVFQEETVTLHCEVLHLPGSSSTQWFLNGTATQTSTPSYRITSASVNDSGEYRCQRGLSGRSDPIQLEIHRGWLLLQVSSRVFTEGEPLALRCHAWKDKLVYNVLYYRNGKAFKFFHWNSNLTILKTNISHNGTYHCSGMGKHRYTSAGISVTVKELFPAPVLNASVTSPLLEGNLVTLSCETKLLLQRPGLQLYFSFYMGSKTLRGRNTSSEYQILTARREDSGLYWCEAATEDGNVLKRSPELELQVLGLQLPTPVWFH
Experimental: as §1, §2

He/Con_1a (Ia binding)	Binder
106 relative (control = 100)	B12
104 relative (control = 100)	B13
105 relative (control = 100)	B14
106 relative (control = 100)	B15
104 relative (control = 100)	B16
104 relative (control = 100)	B17
107 relative (control = 100)	B18
102 relative (control = 100)	B19
107 relative (control = 100)	B20
101 relative (control = 100)	B21
105 relative (control = 100)	B22
106 relative (control = 100)	B23
108 relative (control = 100)	B24
107 relative (control = 100)	B25
103 relative (control = 100)	B26
108 relative (control = 100)	B27
102 relative (control = 100)	B28
106 relative (control = 100)	B29
104 relative (control = 100)	B30

biological target: T2, FcγRIIb; test: as above
Experimental: as §1, §2

He/Con_2b (IIb binding)	Binder
91.2 relative (control = 100)	B12
89.5 relative (control = 100)	B13
90.3 relative (control = 100)	B14
99.5 relative (control = 100)	B15
92.1 relative (control = 100)	B16
58.2 relative (control = 100)	B17
96.7 relative (control = 100)	B18
92.1 relative (control = 100)	B19
92 relative (control = 100)	B20
85.8 relative (control = 100)	B21
99.7 relative (control = 100)	B22
97.8 relative (control = 100)	B23
97.6 relative (control = 100)	B24
98.9 relative (control = 100)	B25
68.2 relative (control = 100)	B26
89.8 relative (control = 100)	B27
83.7 relative (control = 100)	B28
97.2 relative (control = 100)	B29
94.3 relative (control = 100)	B30

biological target: T3, FcγRIIa R (FcγRIIa, allotype R: Arg at …); test: SPR Biacore, antibody captured, FcgR analyte; vs HeCon Ab GpH7-A5/GpH7-B3/GpL16-k0 = 100
Experimental: as §1, §2

He/Con_2aR	Binder
105 control = 100	B31
102 control = 100	B32
102 control = 100	B33
110 control = 100	B34
100 control = 100	B35
104 control = 100	B36
104 control = 100	B37
105 control = 100	B38

biological target: T4, FcγRIIb extracellular domain with …; test: as above
Experimental: as §1, §2

He/Con_2b	Binder
89.8 control = 100	B31
94.6 control = 100	B32
95 control = 100	B33
95 control = 100	B34
83 control = 100	B35
90.8 control = 100	B36
84.8 control = 100	B37
97.7 control = 100	B38
